This is an account of results in patent publication US8580932B2, “Method of thermostabilization of a protein and/or stabilization towards organic solvents” (Masarykova Univerzita, priority 2011, dated 2013).

Data set [1] in a line: Kinetic half-life assay of DhaA variants in 40% (v/v) DMSO. The class given is biochemical, Rhodococcus rhodochrous NCIMB 13064. To be noted: 60 mM glycine buffer (pH 8.6), 37° C.
Data set [2] can be described thus: Steady-state kinetics of haloalkane dehalogenases by isothermal titration calorimetry. As to conditions: pH 8.6, 25° C.; for ar (relative activity): percentage of specific activity in glycine buffer. The class given is biochemical. The method, then:
Substrate to product conversion by the action of enzymes was carried out using VP-ITC isothermal titration microcalorimeter (MicroCal), by single injection method. The substrate 1-iodohexane was dissolved in 100 mM glycine buffer (pH 8.6) containing appropriate volume of organic solvent and equilibrated at 25° C. in the sample cell (1.4 ml). The reaction was initiated by injecting of 10 μl of 1 mg/ml enzyme solution dialyzed overnight against the same solution as used for dissolving of the substrate. The heat flow (μcal s^−1) was recorded as a function of time. The reaction rate was calculated according to the equation:
[formula] where V is the volume of the sample cell, [S] is substrate concentration and ΔH is the enthalpy of the conversion of substrate to product and was determined experimentally by titration of the substrate into the sample cell containing the enzyme. The evaluated rate of substrate depletion (−d[S]/dt), and corresponding substrate concentration were fitted by nonlinear regression to kinetic models by using Origin 6.1 software (OriginLab, Massachusetts, USA). Results
For orientation: In ITC the heat of successive injections is recorded.

A short description of data set [3]: Haloalkane dehalogenase activity assay in the presence of organic solvents. The class given is biochemical. As to conditions: 100 mM glycine buffer (pH 8.6), 37° C., 1-iodohexane (FIG. 12). The method, then:
Haloalkane dehalogenase activity was assayed at 37° C. by a previously described method (Iwasaki, I., Utsumi, S., and Ozawa, T. 1952: New colorimetric determination of chloride using mercuric thiocyanate and ferric ion. Bulletin of the Chemical Society of Japan 25: 226-226). The released halide ions were analysed spectrophotometrically at 460 nm after a reaction with mercuric thiocyanate and ferric ammonium sulphate. The reaction mixture was composed of 100 mM glycine buffer (pH 8.6), 2 μl of substrate 1-iodohexane and appropriate amount of organic solvent. Solvent concentration was increased until the enzyme activity dropped below fifty per cent. The reaction was initiated by the addition of enzyme in a final concentration of 0.15 μM. The reaction was monitored by withdrawing samples at periodical intervals from the reaction mixture. The samples were immediately mixed with 35% nitric acid to terminate the reaction. Dehalogenation activity was quantified as a rate of product formation in time. Each activity was measured in 3-5 independent replicates and expressed as mean values of relative activity, represented percentage of activity in pure buffer.

For data set [4] the following is noted: 12 different substrates; cited from earlier work.
Data set [5] is classed as physicochemical, Sphingobium japonicum UT26. As to conditions: for ΔTm: compared to the wild type LinB; for Tm: ellipticity at 222 nm, 20 to 80° C., 1° C./min, 50 mM potassium phosphate buffer (pH 7.5). The method, then: Circular dichroism spectra were recorded at 20° C. using a Jasco J-810 spectrometer (Jasco, Tokyo, Japan) coupled with Peltier temperature controller. Data were collected from 185 to 260 nm, at 100 nm/min, 1 s response time and 2 nm bandwidth using a 0.1 cm quartz cuvette containing the enzyme variant in 50 mM potassium phosphate buffer (pH 7.5). Each spectrum shown is the average of ten individual scans and was corrected for absorbance caused by the buffer. CD data were expressed in terms of the mean residue ellipticity (ΘMRE) using the equation: […]
Thermal unfolding of LinB enzyme variants was followed by monitoring the ellipticity at 222 nm over the temperature range of 20 to 80° C., with a resolution 0.1° C., at a heating rate 1° C./min. Recorded thermal denaturation curves were roughly normalized to represent signal changes between approximately 1 and 0 and fitted to sigmoidal curves using software Origin 6.1 (OriginLab, Massachusetts, USA). The melting temperatures (Tm) were evaluated as a midpoint of the normalized thermal transition.

Where [6] appears, read: formamide 5% (v/v), 1-iodohexane.

B1: DhaA: haloalkane dehalogenase DhaA from Rhodococcus rhodochrous NCIMB13064 (protein, UniProt P0A3G2 1-293, looked up)
Haloalkane dehalogenase: MSEIGTGFPFDPHYVEVLGERMHYVDVGPRDGTPVLFLHGNPTSSYLWRNIIPHVAPSHRCIAPDLIGMGKSDKPDLDYFFDDHVRYLDAFIEALGLEEVVLVIHDWGSALGFHWAKRNPERVKGIACMEFIRPIPTWDEWPEFARETFQAFRTADVGRELIIDQNAFIEGALPKCVVRPLTEVEMDHYREPFLKPVDREPLWRFPNELPIAGEPANIVALVEAYMNWLHQSPVPKLLFWGTPGVLIPPAEAARLAESLPNCKTVDIGPGLHYLQEDNPDLIGSEIARWLPAL
For orientation: kcat means the number of substrate molecules converted per active site and unit of time at saturation. Take B1: the “deactivation in the presence of DMSO” value in data set [1] is recorded as “proceeded rapidly”. Also, in data set [2] (setting [6]), the “K0.5 (concentration of substrate at half maximal velocity)” value came out at 4.2 µM, the “Ksi (substrate inhibition constant)” value is on record as 0.6 mM and the “nH (Hill coefficient)” value was 2.0. Besides, the “ar (relative activity)” value in data set [2] (formamide 5% (v/v)) worked out at 130%. The “ar (relative activity)” value in data set [2] (glycine buffer (reference)) stood at 100%. In addition, in data set [2] (glycine buffer, 1-iodohexane), the “K0.5 (concentration of substrate at half maximal velocity)” value came out at 8.5 µM, the “Ksi (substrate inhibition constant)” value is 1.1 mM, the kcat was found to be 0.9 s⁻¹ and the “nH (Hill coefficient)” value amounted to 2.0. In addition, the “Specific activity in glycine buffer” value in data set [3] is 0.0355 μmol s^−1 mg^−1 of enzyme.

B2: L177P: LinB variant in the position 177 (protein, UniProt D4Z2G1 2-296, looked up, variant L177P)
Haloalkane dehalogenase: SLGAKPFGEKKFIEIKGRRMAYIDEGTGDPILFQHGNPTSSYLWRNIMPHCAGLGRLIACDLIGMGDSDKLDPSGPERYAYAEHRDYLDALWEALDLGDRVVLVVHDWGSALGFDWARRHRERVQGIAYMEAIAMPIEWADFPEQDRDLFQAFRSQAGEELVLQDNVFVEQVLPGPILRPLSEAEMAAYREPFLAAGEARRPTLSWPRQIPIAGTPADVVAIARDYAGWLSESPIPKLFINAEPGALTTGRMRDFCRTWPNQTEITVAGAHFIQEDSPDEIGAAIAAFVRRLRPA
Consider B2, for which the “activity with tested substrates” value in data set [4] was “did not show activity with any of tested substrates”.

B3: L177Q: LinB variant in the position 177 (protein, UniProt D4Z2G1 2-296, looked up, variant L177Q)
Haloalkane dehalogenase: SLGAKPFGEKKFIEIKGRRMAYIDEGTGDPILFQHGNPTSSYLWRNIMPHCAGLGRLIACDLIGMGDSDKLDPSGPERYAYAEHRDYLDALWEALDLGDRVVLVVHDWGSALGFDWARRHRERVQGIAYMEAIAMPIEWADFPEQDRDLFQAFRSQAGEELVLQDNVFVEQVLPGQILRPLSEAEMAAYREPFLAAGEARRPTLSWPRQIPIAGTPADVVAIARDYAGWLSESPIPKLFINAEPGALTTGRMRDFCRTWPNQTEITVAGAHFIQEDSPDEIGAAIAAFVRRLRPA
As usually defined, the ΔTm is the shift of the melting midpoint relative to a reference. Take B3: in data set [5], the thermal shift (ΔTm) was 0.0 °C and the Tm came out at 48.08 ± 0.17 °C.

B4: L177M: LinB variant in the position 177 (protein, UniProt D4Z2G1 2-296, looked up, variant L177M)
Haloalkane dehalogenase: SLGAKPFGEKKFIEIKGRRMAYIDEGTGDPILFQHGNPTSSYLWRNIMPHCAGLGRLIACDLIGMGDSDKLDPSGPERYAYAEHRDYLDALWEALDLGDRVVLVVHDWGSALGFDWARRHRERVQGIAYMEAIAMPIEWADFPEQDRDLFQAFRSQAGEELVLQDNVFVEQVLPGMILRPLSEAEMAAYREPFLAAGEARRPTLSWPRQIPIAGTPADVVAIARDYAGWLSESPIPKLFINAEPGALTTGRMRDFCRTWPNQTEITVAGAHFIQEDSPDEIGAAIAAFVRRLRPA
As to B4, in data set [5], the ΔTm is −0.3 °C and the Tm stood at 47.78 ± 0.17 °C.

B5: L177K: LinB variant in the position 177 (protein, UniProt D4Z2G1 2-296, looked up, variant L177K)
Haloalkane dehalogenase: SLGAKPFGEKKFIEIKGRRMAYIDEGTGDPILFQHGNPTSSYLWRNIMPHCAGLGRLIACDLIGMGDSDKLDPSGPERYAYAEHRDYLDALWEALDLGDRVVLVVHDWGSALGFDWARRHRERVQGIAYMEAIAMPIEWADFPEQDRDLFQAFRSQAGEELVLQDNVFVEQVLPGKILRPLSEAEMAAYREPFLAAGEARRPTLSWPRQIPIAGTPADVVAIARDYAGWLSESPIPKLFINAEPGALTTGRMRDFCRTWPNQTEITVAGAHFIQEDSPDEIGAAIAAFVRRLRPA
Take B5: in data set [5], the “thermal stability compared to the wild type enzyme” value is “improvement in thermal stability”, the ΔTm was found to be 3.0 °C and the Tm amounted to 51.01 ± 0.54 °C.

B6: L177H: LinB variant in the position 177 (protein, UniProt D4Z2G1 2-296, looked up, variant L177H)
Haloalkane dehalogenase: SLGAKPFGEKKFIEIKGRRMAYIDEGTGDPILFQHGNPTSSYLWRNIMPHCAGLGRLIACDLIGMGDSDKLDPSGPERYAYAEHRDYLDALWEALDLGDRVVLVVHDWGSALGFDWARRHRERVQGIAYMEAIAMPIEWADFPEQDRDLFQAFRSQAGEELVLQDNVFVEQVLPGHILRPLSEAEMAAYREPFLAAGEARRPTLSWPRQIPIAGTPADVVAIARDYAGWLSESPIPKLFINAEPGALTTGRMRDFCRTWPNQTEITVAGAHFIQEDSPDEIGAAIAAFVRRLRPA
As to B6, in data set [5], the thermal shift (ΔTm) came out at 0.8 °C and the Tm worked out at 48.85 ± 0.28 °C.
